# Numbering of substitutions follows the chain as printed.
# T1: HermesΔ transposase (UniProt Q25438 79-612, C519S;del497-516)
# T1 sequence: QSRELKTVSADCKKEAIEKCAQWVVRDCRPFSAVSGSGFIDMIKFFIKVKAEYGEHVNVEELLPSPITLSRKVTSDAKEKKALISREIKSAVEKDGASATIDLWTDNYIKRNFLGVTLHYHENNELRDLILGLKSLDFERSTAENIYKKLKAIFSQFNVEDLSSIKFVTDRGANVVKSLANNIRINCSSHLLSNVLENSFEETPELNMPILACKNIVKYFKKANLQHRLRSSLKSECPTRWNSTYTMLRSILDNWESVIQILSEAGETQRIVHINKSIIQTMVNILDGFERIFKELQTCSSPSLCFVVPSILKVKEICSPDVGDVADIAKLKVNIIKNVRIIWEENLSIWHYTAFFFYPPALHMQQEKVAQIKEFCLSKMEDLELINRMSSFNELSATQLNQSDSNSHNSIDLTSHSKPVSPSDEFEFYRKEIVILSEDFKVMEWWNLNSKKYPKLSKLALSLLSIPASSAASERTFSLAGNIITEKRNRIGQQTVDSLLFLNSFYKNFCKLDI
# B1: Hermes_(79-612Δ497-516) (enzyme, Musca domestica, UniProt Q25442 79-612, looked up)
# chain: T1 sequence with K50G, S155L, M208V
# B2: DNA(C:G) (dsDNA)
# DNA 1: GCGTGAC
# DNA 2: AGAGAACAACAACAAG
# DNA 3: CTTGTTGTTGTTCTCTGGGTCACGC
# B3: DNA(A:T) (dsDNA)
# DNA 1: GCGTGAA
# DNA 2: AGAGAACAACAACAAG
# DNA 3: CTTGTTGTTGTTCTCTGGTTCACGC
# Experiments:
# [1] = target: the molecule itself; assay: crystal structure; HermesΔ co-crystallised with annealed DNA(C:G) or DNA(A:T) oligonucleotides, hanging drops at 4°C, with or without a soak in 8 mM CaCl2 or MnCl2; four structures at 2.85-3.2 Å
# HermesΔ transposase [2] = target: T1, HermesΔ transposase; assay: X-ray crystallography; no metal ions; Complex dialyzed at 4°C in 25 mM HEPES pH 7.5, 0.3 mM TCEP, 0.5 M then 250 mM NaCl, with or without 5 mM MgCl2; DNA:protein 1:1.05 as printed
# HermesΔ transposase [3] = target: T1, HermesΔ transposase; assay: X-ray crystallography; 8 mM Mn2+ soak, 48 h; two Mn2+ in active site, third Mn2+ at N185; Complex dialyzed at 4°C in 25 mM HEPES pH 7.5, 0.3 mM TCEP, 0.5 M then 250 mM NaCl, with or without 5 mM MgCl2; DNA:protein 1:1.05 as printed
binder,measurement,setting,value
B1,binding result,[1],binds
B2,binding result,HermesΔ transposase [2],binds
B3,binding result,HermesΔ transposase [3],binds
